According to US9447157B2, “Nitration shielding peptides and methods of use thereof” (Augusta University Research Institute, Inc., priority 2013, dated 2016):
“Also recorded” adds a separate entry of the source. No end group written: not given here. *: point of attachment. X1 = 3‑carboxy‑2,2,5,5‑tetramethyl‑3‑pyrrolin‑1‑yloxy, CC1(C)C=C(C(=O)*)C(C)(C)N1[O]

Columns and labels:
[1] = test system: human lung microvascular endothelial cells (HLMVEC); experiment: Endothelial monolayer resistance (ECIS, TER) in LPS-challenged HLMVEC; assay type: cell-based; settings: for Attenuation of LPS-mediated decrease in transendothelial resistance (TER) / barrier disruption: HLMVEC, LPS 1 EU/ml, MnTMPyP 25 μM, ETU 200 μM, 1400W 100 μM
Protocol: The electrical resistance of the endothelial cell monolayer was measured with the electrical cell impedance sensor (ECIS) technique. In this system, the cells are cultured on gold plated electrodes. The change in resistance across the monolayer is measured through an amplifier attached to the arrays. Each study was performed when the resistance reached a plateau. The data was normalized to the initial voltage and plotted as a normalized resistance.
To examine if protein nitration by peroxynitrite is a contributing factor in endothelial barrier disruption in response to LPS, transendothelial resistance (TER) was measured in HLMVEC in the presence or absence of the peroxynitrite scavenger, MnTmPyp. HLMVEC were challenged with LPS (1 EU/ml) in the presence or absence of the peroxynitrite scavenger, MnTMPyP (25 μM).
To evaluate the role played by NOS in the barrier dysfunction, HLMVEC were exposed to LPS in the presence or absence of ETU (a non-specific NOS inhibitor) or 1400W (to inhibit iNOS). HLMVEC were challenged with LPS (1 EU/ml) in the presence or absence of the general NOS inhibitor, ETU (200 μM) or the iNOS specific inhibitor, 1400W (100 μM). The LPS-mediated decrease in TER was attenuated in the presence of ETU, but not 1400W (FIG. 1B). The important role of eNOS was then confirmed using a siRNA approach. HLMVEC were transiently transfected with a siRNA against eNOS or a scrambled control siRNA. After 48 h, there was a significant knockdown of eNOS protein levels (50%), as determined by Western blotting. Reducing eNOS protein levels preserved HLMVEC barrier function when challenged with LPS (FIG. 1C).

Recombinant human PKG-Iα = target: T1, Recombinant human PKG-Iα (Homo sapiens, UniProt Q13976); experiment: PKG-Iα activity assay with SIN-1 and shielding peptide; assay type: biochemical
T1 sequence (Q13976 2-671): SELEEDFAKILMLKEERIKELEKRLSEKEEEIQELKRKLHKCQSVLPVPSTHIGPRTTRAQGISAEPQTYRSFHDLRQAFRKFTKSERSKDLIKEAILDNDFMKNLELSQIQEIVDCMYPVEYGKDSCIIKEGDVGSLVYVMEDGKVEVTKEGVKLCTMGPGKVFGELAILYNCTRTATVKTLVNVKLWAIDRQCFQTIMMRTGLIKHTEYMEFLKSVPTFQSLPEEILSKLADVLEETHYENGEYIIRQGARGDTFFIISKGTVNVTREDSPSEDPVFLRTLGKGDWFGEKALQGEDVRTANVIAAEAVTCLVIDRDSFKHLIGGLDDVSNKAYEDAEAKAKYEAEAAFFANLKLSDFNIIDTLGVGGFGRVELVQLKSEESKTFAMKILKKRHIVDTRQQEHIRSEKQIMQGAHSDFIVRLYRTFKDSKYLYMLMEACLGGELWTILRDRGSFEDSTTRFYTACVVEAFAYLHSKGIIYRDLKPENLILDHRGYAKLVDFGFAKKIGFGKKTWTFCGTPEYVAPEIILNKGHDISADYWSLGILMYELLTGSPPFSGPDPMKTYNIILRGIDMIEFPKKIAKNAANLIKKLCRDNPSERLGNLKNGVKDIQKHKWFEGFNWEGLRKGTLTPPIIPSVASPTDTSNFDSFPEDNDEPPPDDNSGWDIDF
Protocol: A PKG-Iα activity assay was carried out using HLMVEC. Recombinant human PKG-Iα18 was exposed to the peroxynitrite generator, SIN-1 (200 μM, 10 min) with increasing concentrations of the shielding peptide (0-10 μg).

HLMVEC = experiment: Total protein nitration (3-NT/β-actin) in LPS-treated HLMVEC; assay type: cell-based, human; settings: peptide 100 ng/ml 30 min, then LPS 1 EU/ml
From the text: Cell extracts were separated on 4-20% gels and electrophoretically transferred to PVDF membrane (Bio-Rad), then blocked with 5% nonfat dry milk in Tris-buffered saline. The membranes were probed with antibodies to RhoA (Cell Signaling), eNOS (BD), iNOS (Cell Signaling), or 3-Nitrotyrosine (Calbiochem). Reactive bands were visualized using chemi-luminescence (Pierce) on a Kodak 440CF image station. Band intensity was quantified using Kodak 1D image processing software. Protein loading was normalized by re-probing with mouse anti-β-actin.

RhoA [2] = target: T2, RhoA (Mus musculus, UniProt Q9QUI0); experiment: RhoA activity, nitration and protein in lungs of LPS treated mice; assay type: in vivo
T2 construct: from tissue; host or cells: mouse lung (male C57Bl/6)
T2 sequence (Q9QUI0 whole entry): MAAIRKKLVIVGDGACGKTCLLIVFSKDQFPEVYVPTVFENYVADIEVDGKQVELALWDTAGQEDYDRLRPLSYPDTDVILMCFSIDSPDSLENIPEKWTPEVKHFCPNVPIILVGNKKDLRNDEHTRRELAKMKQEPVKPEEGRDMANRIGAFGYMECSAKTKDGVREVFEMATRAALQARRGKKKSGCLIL
Protocol: The Committee on Animal Research at Georgia Regents University approved all animal protocols and procedures. Stock solutions of Escherichia coli LPS (0111:B4) were prepared in saline. […] Mice were examined 24 h after LPS treatment. At the end of the treatment lungs were flushed with 3 ml of ice-cold PBS (5 mM EDTA), excised, dipped in saline and blotted dry. A portion of the lung was quickly snap-frozen in liquid nitrogen, crushed to powder in a pre-chilled mortar and stored at -80° C. The remaining lung tissue was stored at -80° C. […] After 24 h, mice were sacrificed and lung tissue was obtained to determine RhoA activity and RhoA nitration, LPS induced RhoA activation in the mouse lung as in HLMVEC (FIG. 7A). […] Total RhoA protein levels and basal RhoA nitration were measured. […] Likewise, basal RhoA nitration levels (FIG. 7D) were unchanged.

RhoA [3] = target: T3, RhoA (Homo sapiens, UniProt P61586); experiment: Biotin pull down assay of peptide binding to RhoA; parameters: polyHis (6His); made in house; host or cells: Escherichia coli BL21; settings: peptide 100 ng/ml, recombinant human RhoA 0.1 mg
T3 sequence (P61586 whole entry): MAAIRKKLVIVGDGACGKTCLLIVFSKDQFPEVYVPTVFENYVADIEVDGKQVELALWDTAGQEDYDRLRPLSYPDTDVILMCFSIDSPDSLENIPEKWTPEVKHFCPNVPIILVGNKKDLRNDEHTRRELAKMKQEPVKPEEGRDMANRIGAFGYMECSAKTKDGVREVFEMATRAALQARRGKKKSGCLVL
Protocol: To evaluate the ability of each peptide to bind to RhoA each peptide (100 ng/ml) was mixed with recombinant human RhoA (0.1 mg) for the biotin pull down assay.

RhoA [4] = target: T3, RhoA; experiment: RhoA activity, Rhotekin RBD pull-down, in LPS-treated HLMVEC; assay type: cell-based; parameters: endogenous in cells; host or cells: HLMVEC (human lung microvascular endothelial cells); settings: MnTMPyP 25 μM 30 min pre-treatment, LPS 1 EU/ml 4 h
Protocol: RhoA activity levels were measured using the Rhotekin Rho Binding Domain (RBD) pull-down assay. Briefly, 2×10^6 cells were seeded in 10 cm dishes and incubated overnight in DMEM with 10% FBS and 5% antibiotics. The cells were then pretreated with the peroxynitrite scavenger, MynTMPyp (25 μM), for 30 min. The cells were treated with LPS (1 EU/ml) for 4 h. The level of active RhoA pulled down by the assay was measured by Western blot analysis (see above).

RhoA [5] = target: T3, RhoA; experiment: RhoA nitration, immunoprecipitation and 3-NT blot, in LPS-treated HLMVEC; assay type: cell-based; parameters: endogenous in cells; host or cells: HLMVEC (human lung microvascular endothelial cells); settings: MnTMPyP, LPS 1 EU/ml 4 h
From the text: HLMVEC were lysed and centrifuged at 6,000×g and the supernatant collected as previously described (Sud, N., et al., Am. J. Physiol. Lung Cell Mol. Physiol. 293, L1444-1453 (2007); Sharma, S., et al., Am. J. Physiol. Lung Cell Mol. Physiol. 294, L46-56 (2008)). Cell extracts were separated on 4-20% gels and electrophoretically transferred to PVDF membrane (Bio-Rad), then blocked with 5% nonfat dry milk in Tris-buffered saline. The membranes were probed with antibodies to RhoA (Cell Signaling), eNOS (BD), iNOS (Cell Signaling), or 3-Nitrotyrosine (Calbiochem). Reactive bands were visualized using chemi-luminescence (Pierce) on a Kodak 440CF image station. Band intensity was quantified using Kodak 1D image processing software. Protein loading was normalized by re-probing with mouse anti-β-actin.
HLMVEC were homogenized in IP buffer (25 mM Hepes, pH 7.5, 150 mM NaCl, 1% NP-40, 10 mM MgCl2, 1 mM EDTA, 2% glycerol supplemented with protease inhibitors). To precipitate the bound protein, 10 μl of a protein A/G agarose suspension (EMD/Calbiochem) was added for 2 h at 4° C. The samples were then centrifuged at 14,000 rpm for 5 min, the supernatant removed, and the beads washed 3× with IP buffer. Twenty μl of 2× Laemmli buffer was added, the samples were boiled for 5 min, and analyzed as described above. Immunoprecipitation efficiency was normalized by re-probing with RhoA.

RhoA [6] = target: T3, RhoA; experiment: Stopped-flow kinetic analysis of mant-GDP/mant-GTP binding to RhoA; parameters: polyHis (6His); made in house; host or cells: Escherichia coli BL21; Binding constant of GDP to RhoA / GTP binding constant of RhoA: unit not given here; settings: stop-flow, RhoA with or without peroxynitrite (100 μM, 30 min); for Binding constant of GDP to RhoA: mant-GDP; for GTP binding constant of RhoA: mant-GTP
Protocol: RhoA was treated with authentic peroxynitrite (500 μM, 30 min) to induce tyrosine nitration in buffered solution. For kinetic analyses, 2 μM of either mart-GTP or -GDP was mixed with RhoA (0.1 μM) in a stopped-flow instrument (SX-20, […]). Increases in fluorescent intensity mant-nucleotide binding to RhoA were then measured using excitation 350 nm and cutoff filter 395 nm for 0.2-1 second. Acquired kinetic curves for 3-5 experiments were averaged and fitted using the Pro-kineticist software to determine observed binding constants.
To test the validity of the MD data kinetic studies were performed. His-tagged human RhoA construct was expressed in the Escherichia con BL21 strain. First, the bacterial lysate was purified by 6His-tag affinity on a Ni-NTA column. Second, the proteins in the elution fraction from the affinity purification were separated by size-exclusion chromatography (FIG. 11). The fraction containing RhoA was identified both by Coomassie blue staining and Western blot analysis. The recombinant purified RhoA was subjected to rapid flow kinetics to evaluate GDP and GTP binding using fluorescently labeled guanine nucleotides. Peroxynitrite decreases GDP binding to purified RhoA. Human recombinant RhoA was exposed to authentic peroxynitrite (100 μM, 30 min) on ice. The kinetics of binding fluorescently labeled GDP (FIG. 12A) or GTP (FIG. 12B) to RhoA was then performed using stop-flow analysis. Three measurements were averaged and fitted with bimolecular reaction equation. […] However, nitration of RhoA had no effect on the GTP binding constant ([…]).

Compound: CCSC(=N)N [ETU]
- Attenuation of LPS-mediated decrease in transendothelial resistance (TER) / barrier disruption [1]: attenuated

Compound: GALRQKNVK(X)-amide (SEQ ID NO:29), where X is 3-carboxy-2,2,5,5-tetramethyl-3-pyrrolin-1-yloxy (nitroxide) (GALRQKNVK(X1)-NH2; N-terminus assumed; SMILES CC(C)C[C@H](NC(=O)[C@H](C)NC(=O)CN)C(=O)N[C@@H](CCCNC(=N)N)C(=O)N[C@@H](CCC(N)=O)C(=O)N[C@@H](CCCCN)C(=O)N[C@@H](CC(N)=O)C(=O)N[C@H](C(=O)N[C@@H](CCCCNC(=O)C1=CC(C)(C)N([O])C1(C)C)C(N)=O)C(C)C; listed as Homo sapiens) [shielding peptide]
- Barrier function when challenged with LPS ([1]; in vitro, LPS challenge): preserved
- PKG-Iα activity against peroxynitrite (Recombinant human PKG-Iα; SIN-1 200 μM, 10 min, shielding peptide 0-10 μg): preserves; also recorded: dose-dependently preserved
- Physiologic PKG-Iα activity (Recombinant human PKG-Iα; in vitro): did not alter

Compound: HRKKRRQRRRQFPVFVPTVF (SEQ ID NO:35) (listed as Homo sapiens) [NipR1F, control peptide in which Y34 was substituted with a phenylalanine residue]
- Increase in total protein nitration induced by LPS (HLMVEC): unaffected
- Basal RhoA nitration levels in mouse lung (RhoA [2]; peptide alone, no LPS): unchanged
- Total RhoA protein levels in mouse lung (RhoA [2]; peptide i.p. 0.1 mg/kg, with or without LPS): Neither peptide nor LPS treatment altered
- Interaction between RhoA and biotinylated peptide (RhoA [3]): strong interaction

Compound: MnTMPyP
- Attenuation of LPS-mediated decrease in transendothelial resistance (TER) / barrier disruption [1]: significantly attenuated
- Attenuation of LPS-induced increase in RhoA activity (RhoA [4]): attenuated
- Attenuation of LPS-induced RhoA nitration (RhoA [5]): attenuated

Compound: RhoA+ONOO: human recombinant RhoA exposed to authentic peroxynitrite (nitrated)
- Binding constant of GDP to RhoA (RhoA [6]): 4.03
- GTP binding constant of RhoA (RhoA [6]): 36.2

Compound: RhoA: His-tagged human recombinant purified RhoA
- Binding constant of GDP to RhoA (RhoA [6]): 19.8
- GTP binding constant of RhoA (RhoA [6]): 38.7
